Assay: yeast display, Sf9 membrane polyspecificity reagent, FACS + sequencing; frameworks hold sequencing errors
Outline: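 Using colony PCR, genes from sorted yeast display clones were amplified, then sequenced on MiSeq at 2 × 250 and filtered by CDR length. The clones had been stained with 10% biotinylated, detergent-solubilized Sf9 membrane reagent for 1 hour at 4 °C and sorted by FACS into low and high (top ~1%) gates on anti-HA and streptavidin fluorescence. Polyreactivity labels come from the gate of origin.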

Sequence	polyreactivity (PSR sort gate)
QVQLVESGGGLVHAGGSLRLSCAASGNTYLYYGLGWYRQAPVKEREMVAAITQSGGTTYYADSVKGRFTISRDNAKNTVYLQMNSLTPEDTAVYYCAATRYYYYWYVYDDRGDYWGQGTQVTVSS	low polyreactivity
QVQLVESGGGLVHAGGSLRLSCAASGRIFERYAMGWYRQAPGKERELVAAISVSGSGTYYADSVKGRFTISRDNAKNTVYLQMNSLKPEDTAVYYCAADASLLGLFQGYDYWGQGTQVTVSS	low polyreactivity
QVQLVESGGGLVHAGGSLRLSCAASGRIFFDYTMGWYRQAPGKERELVAAIRTRGDSTYYADSVKGRFTISRDNAKNTFYLQMNSLKPEDTAVYYCAAAVYVRGRRESWGQGTQVTVSS	high polyreactivity
QVQLVESGGGLVHAGGSLRLSCAASGRIFHFNAMGWYRPAPGIERELVATITKRGGRTYYADSVKGRFTISRDNAKNTVYLQMNSLKPEDTAVYYCNADQSRYSAVSGYDYWGQGTQVTVSS	high polyreactivity
QVQLVESGGGLVHAGGSLRLSCAASGRIFRWYAMGWYRQAPGKERELVAAISSRGGSTYYADSVKGRFTISRDNAKNTVYLQMNSLKPEDTAVYYCAADTSGWQPRYDYWGQGTQVTVSS	high polyreactivity
QVQLVESGGGLVHAGGSLRLSCAASGRIFTYNAMGWYRQAPGKERELVAAISTGGSTNYADSVKGRFTISRDNAKNTVYLQMNSLKPEDTAVYYCARRWWPTYDYWGQGTQVTVSS	high polyreactivity
QVQLVESGGGLVHAGGSLRLSCAASGRIFVGYTMGGYRQGPGKERELVAAISWDGDITYYADSVKGRFTISRDKAKNTVYLQMNSLKPEDTAVYYCAVDLPVSESHHTLTFELDYWGQGSQVTVSS	low polyreactivity
QVQLVESGGGLVHAGGSLRLSCAASGRIFVGYYAMGWYRQAPGKERELVAAITIGGRTYYADSVKGRFTISRDNAKKTVYLQMKSLKPEDTAVYYCAASKYSRAYQEFGYWGQGTQVTVSS	high polyreactivity
QVQLVESGGGLVHAGGSLRLSCAASGRTFAPYTMGWYRPAPGKERELVASISTGGSTYYADSVKGRFTISRYNAKNTVYLQMNSLKPEDTAVYYCAATGWAYGYGYGYWGQGTQVTVSS	low polyreactivity
QVQLVESGGGLVHAGGSLRLSCAASGRTFNYYAMGWYRQAPGKERELVAAISKSTGNTYYADSVKGRFTISRDNAKNTVYLQMNSLKPEDTAVYYCAAKKRGSHVYQYDYCGQGTQVTVSS	low polyreactivity
QVQLVESGGGLVHAGGSLRLSCAASGRTQPYNAMGWYRQAPGKERELVAAISKRGSSTYYADSVKGRFTISRDNAKNTVYLQMNSLKPEDTAVYYCATPGPAVHGTRGEYDYWGQGTQVTVSS	high polyreactivity
QVQLVESGGGLVHAGGSLRLSCAASGSIFGANVMGWYRQAPGKERELVAAITRSGTRTYYADSVKGRFTISRDNAKNTVYLQMNSLKPEDTAVYYCAAVLRLSTLTTDFGYWGQGTQVTVSS	high polyreactivity
QVQLVESGGGLVHAGGSLRLSCAASGSIFGFNAMGWYRPAPGKERELVAAISSGSTYYADSVKGRYTISRDNAKTTVYLQMNSLKPEDTAVYYCAATTGYSWYGYWGQGTQVTVSS	low polyreactivity
QVQLVESGGGLVHAGGSLRLSCAASGSIFQGYAMGRYRQAPGKERDLVAAITASGGSTYYADSVKGRFTISRDNAKNTVYLQMNSLKPEDTAVYYCATDSYWRQDLYRYEYWGQGTQVTVSA	high polyreactivity
QVQLVESGGGLVHAGGSLRLSCAASGSIFTFYTMGWYRQAPGKERELVAAINWSGSRTYYADSVKGRFTISRDNAKNTVYLQMNSLKPEDTAVYYCAAYYYTGPTTVESDYWGQGTQVTVSS	high polyreactivity
QVQLVESGGGLVHAGGSLRLSCAASGSIFTIYAMGWYRQAPGKERELVAAISDRGTRTYYADSVKGRFTISRDNAKNTVYLQMNSLKPEDTAVYYCATDALYTYGYDYWGQGTQVTVSS	low polyreactivity
QVQLVESGGGLVHAGGSLRLSCAASGSIFTKYVMGWYRQAPGKERELVAAITYSGGNTYYADSVKGRFTISRDNAKNTVYFQMNSLKPEDTAVYYCAAKSSAHRGGYWGQGTQVTVSS	high polyreactivity
QVQLVESGGGLVHAGGSLRLSCAASGSIFWYYTMGSYRQAPGKERELVATIRWRSGSTYYADSVKGRYTISRDNAKNTVYLQMNTQKPEDTAVYYCAADLYSAVYFSRWSDYWGQGTQVTVSS	high polyreactivity
QVQLVESGGGLVHAGGSLRLSCAASGSIFYSNVMGWYRQAPGKERELVAAITRGGGTNYADSVKGRFTISRDNAKNTVYLQMNSLKPEDTAVYYCNRDPQKYRWIPRYDYWGQGTQVTVSS	low polyreactivity
QVQLVESGGGLVHAGGSLRLSCAASGSTFGANAMGWYRQAPGKEREFVAAISGSGTTTYYADSVKGRFTISRDNAKNSVYLQMNSLKPEDTAVYYCAKTRKGHWLEYWGQGTQVTVSS	low polyreactivity
QVQLVESGGGLVHAGGSLRLSCAASGSTFNYYAMGWYRQAPGKERELVAAIDWSGGSTYYADSVKGRFTISRDNAKNTVYLQMNSLKPEDTAVYYCAARTYDYSYRSYDYWGQGTQVTVSS	low polyreactivity
QVQLVESGGGLVHAGGSLRLSCAASGSTLAGYAMGWYRQAPGKERELVAAIDWTGGSTTYSDSVKGRFTISRDNAKNTVYLQMNSLKPEDTAVYFCHVDLGVNGDYWGQGTQVTVSS	low polyreactivity

Sequence	polyreactivity (PSR sort gate)
QVQLVESGGGLVHAGGSLRLSCAASRSTFALNAMGWYRPAPGKERELVAAISRRGGSTYYADSVKGRFTISRDNAKNSVYLQMNSLKPEDTAVYYCAARYKRFTRFDYWGQGTQVTVSS	high polyreactivity
QVQLVESGGGLVHAGGSLRLSCAPSGSIFTPYAMGWYRQAPAKDRELVADNTYRGGSTYYADSVKGRFTISRDNAKNSVYLQINSLKAEDSAVYYCNADVFTDYRHTRDDYWGQGTQVTVSS	low polyreactivity
QVQLVESGGGLVHAGGSLRLSCASSGIIFDYYAMAWYRQAPGKERELVASITGTTGSTYYADSVKGRFTISRDNAKINVYLQMNSLKPEDTAVYYCNVDTPYGGLVTMDYWGQGTQVTVSS	low polyreactivity
QVQLVESGGGLVHAGGSLRLSCSPSVSIFNTYAMGWYRQAPGKERELVAGITKTGSPTYYADSVKGRFTISRDIAKNTFYLQMNSLKPEDTAVYYCNARIWPRSYRYDYWGQGTQVTVSS	high polyreactivity
QVQLVESGGGLVHAGGSLSLSCAASGSIFPGYAMGWYRQAPGKERELVAGITWSDARTYYADSVKGRFTISRDNAKNTVYLQMNSLKPEDTAVYYCAADYYYYERDYWGKGTQVTVSS	low polyreactivity
QVQLVESGGGLVHDGGSLRLSCAASGSILWPYAMGLYRQAPGKERELVAAISTGGSTYYADSVKGRFTISRDNANNTVYLQRNSLKPEDTAVYYCAAFVDYSVYFGGGYWGQGTQVTVSS	low polyreactivity
QVQLVESGGGLVHPGGSLRLSCAASGIIFGRYTMGWYRQAPGKERELVAAITSSGITYYADSVKGRFTISRDNAKNTVYLQMNSLKPEDTAVYYCNADYSIPGYYWPYDYWGQGTQVTVSS	low polyreactivity
QVQLVESGGGLVHPGGSLRLSCAASGSTFGCNAMGWYRQAPGKERELVSAITFSGGTTYYADSVKGRFTISRDNAKNTVYLQMNSLKPEDTAVYYCNAEWWYQYTGPFAPRGEDYLGQGTQVTVSS	low polyreactivity
QVQLVESGGGLVKAGCSLRLSCAASGRIFIVNAMGWYRQAPGKERELVAAISGSGGRTYYADSVKGRFTNSRDNAKNTVYLQMNSLKPEVTAVYYCAAVLRTQPRRYDYWGQGTQVTVSS	high polyreactivity
QVQLVESGGGLVKAGGSLRISCAASGSIFGPNGKGLYRQAPGKERELVSAISWNGGSTYYADSVKGRFTISRDNAKNTVYLQMNSLKPEDTAVYYCNAVQYYEFDYWGHGTQVTVSS	low polyreactivity
QVQLVESGGGLVKAGGSLRLSCAASGFIFGYNDMGGYRQAPGKERELVAAITSRGDRTYYADSVKGRFTISRDNAKNTVYLQMNSLKPEDTAVYYCAAESQAYSLYWGQGTQLTVSS	high polyreactivity
QVQLVESGGGLVKAGGSLRLSCAASGFNFSSYALGWYRPAPGKERELVAAISYSGGSTYYADSVKGRFTISRDNAKNTVYLQMNSLKPEDTAVYYCNKLRGYGLRYIVSLDYWGQGTQVSVSS	high polyreactivity
QVQLVESGGGLVKAGGSLRLSCAASGNIFYINTMGWYRQAPGKERELVAAIDASYGSTYYADSVKGRFTISRDNAKNTVYLQMNSLKPEDTAVYYCATSRGYDSVYYFYTLWYYYWVQGTQVTVSS	low polyreactivity
QVQLVESGGGLVKAGGSLRLSCAASGRIFNYYAMGWYRQAPGKERELVAAISSVGSTNYADSVTGRFTISRDNAKNTVYLQMISLKPEDTAVYYCAAPYQHYDVNYDSWGQGTQVTVSS	low polyreactivity
QVQLVESGGGLVKAGGSLRLSCAASGRTFLRNAMGWYRQAPGKERELVATITRGGSTYYADSVKGRFTISRDNAKNTVYLQMNSLKPEDTAVYYCAKDITGGFRRPDYGYWGHGTQVTVSS	low polyreactivity
QVQLVESGGGLVKAGGSLRLSCAASGRTFRYYDMGWYRQAPGKESELVAAIRTRGASTYYADSVKGRFTISRDNAKNTVYLQMNSLNPEDTAVYYCAKRAHFSSARHVYYIYDYWGQGTQVTVSS	low polyreactivity
QVQLVESGGGLVKAGGSLRLSCAASGSIFKGNVMGWYRQAPGKERELVAGINWSSGRTYYADSVKGRFTISRDNAKNTVYLQMNSLNPEDTAVYYCNAPQYFSYSWPYPREYDYWGQGTQVNVSS	high polyreactivity
QVQLVESGGGLVKAGGSLRLSCAASGSIGSYAMGCYRQAPGKERELVAAISSRGGSTYYADSVKGRFTISRDNAKNTVYLQMNSLKPEDTAFYYCAADYRGRYYSKYYYWGQGTQVTVSS	high polyreactivity
QVQLVESGGGLVKAGGSLRLSCAASGSISAGNAMGWNIHAPGKERELVAAISGSGGSTFYADSVKGRFTISRYNAKNSVYLQINSLKPEDTAVYYCAARGGYRLRYIPYVRYDYWGQGTQVTVSS	high polyreactivity
QVQLVESGGGLVKAGGSLRLSCAASGSNFTFYAMGWYRQAPGKVRELDATISLRGGRKYYADSVKGRFTISRDNAKNTVYLQMNSLKPEDTAVYYCNAPAYYGGYRFRGYNYWGQGTQVTVSS	high polyreactivity
QVQLVESGGGLVKAGGSLRLSCAASGSTFRKYAMGWYRQAPGKEREFVAAISSSGGRTYYADSVKGRFTISRDNAKNTVYFLMNSLKPEDTAVYYCNSYFRYSNDYWGQGTQVTVSS	high polyreactivity

Reference: the nanobody polyreactivity screen of Harvey et al. (2022)
